Results taken from patent US9176064B2, “Bisubstrate fluorescent probes for protein kinase CK2” (University of Tartu, priority 2012, dated 2015).
Where a SMILES comes first, the peptide text is derived from it. [ ]: non-standard residue; d: D form. The star is where a group is joined. X1 = O=C(CCCCCCCn1cnc2c(Br)c(Br)c(Br)c(Br)c21)*

Key:
Assay in all cases: Kinase panel residual activity
Format in all cases: biochemical
Details in all cases: compound at 1 micromolar
[1] = target: T1, GCK (Homo sapiens, UniProt Q12851)
T1 sequence (Q12851 1-820): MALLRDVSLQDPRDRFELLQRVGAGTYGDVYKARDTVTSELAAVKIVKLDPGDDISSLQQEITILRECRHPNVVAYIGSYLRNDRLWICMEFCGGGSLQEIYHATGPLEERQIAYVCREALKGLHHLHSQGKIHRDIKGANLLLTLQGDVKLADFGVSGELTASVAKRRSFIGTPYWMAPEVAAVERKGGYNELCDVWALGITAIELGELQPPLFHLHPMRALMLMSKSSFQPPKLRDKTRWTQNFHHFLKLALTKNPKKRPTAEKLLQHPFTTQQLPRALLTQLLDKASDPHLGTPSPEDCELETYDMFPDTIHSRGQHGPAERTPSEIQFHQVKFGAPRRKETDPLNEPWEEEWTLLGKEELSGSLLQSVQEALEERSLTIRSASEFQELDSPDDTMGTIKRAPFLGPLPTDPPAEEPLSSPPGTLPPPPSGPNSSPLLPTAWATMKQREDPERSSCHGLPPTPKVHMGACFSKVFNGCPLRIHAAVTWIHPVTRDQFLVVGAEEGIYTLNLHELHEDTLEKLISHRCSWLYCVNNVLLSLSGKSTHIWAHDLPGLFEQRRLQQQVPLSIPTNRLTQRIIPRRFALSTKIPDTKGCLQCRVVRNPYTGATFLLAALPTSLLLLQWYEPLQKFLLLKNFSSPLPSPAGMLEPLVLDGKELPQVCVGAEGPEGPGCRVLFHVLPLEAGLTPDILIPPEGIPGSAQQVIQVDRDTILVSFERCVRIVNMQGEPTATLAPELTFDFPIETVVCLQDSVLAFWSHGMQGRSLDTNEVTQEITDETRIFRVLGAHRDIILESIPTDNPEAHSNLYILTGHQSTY

[2] = target: RSK2 (Homo sapiens, UniProt P51812)
[3] = target: PKBb (Homo sapiens, UniProt P31751)
[4] = target: T2, TBK1 (Homo sapiens, UniProt Q9UHD2)
T2 sequence (Q9UHD2 1-729): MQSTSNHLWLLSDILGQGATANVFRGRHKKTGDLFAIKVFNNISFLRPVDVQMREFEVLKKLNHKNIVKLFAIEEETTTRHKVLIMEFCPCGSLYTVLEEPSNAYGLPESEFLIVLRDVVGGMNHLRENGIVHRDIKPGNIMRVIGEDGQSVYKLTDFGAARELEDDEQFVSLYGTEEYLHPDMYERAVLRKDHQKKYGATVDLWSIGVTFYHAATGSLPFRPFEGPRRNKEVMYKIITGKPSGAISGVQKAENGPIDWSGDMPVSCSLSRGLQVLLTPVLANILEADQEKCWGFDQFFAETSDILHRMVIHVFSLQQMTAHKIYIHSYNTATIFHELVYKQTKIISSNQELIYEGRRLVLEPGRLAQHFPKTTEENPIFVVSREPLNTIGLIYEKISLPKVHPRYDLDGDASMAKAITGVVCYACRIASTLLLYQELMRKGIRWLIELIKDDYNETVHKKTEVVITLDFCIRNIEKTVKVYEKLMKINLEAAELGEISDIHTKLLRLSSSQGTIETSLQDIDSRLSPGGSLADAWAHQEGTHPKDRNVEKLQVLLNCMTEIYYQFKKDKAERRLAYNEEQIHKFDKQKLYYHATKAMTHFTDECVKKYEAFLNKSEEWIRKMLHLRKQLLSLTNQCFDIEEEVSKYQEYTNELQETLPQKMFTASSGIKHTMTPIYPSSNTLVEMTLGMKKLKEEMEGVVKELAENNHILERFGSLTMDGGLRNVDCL

[5] = target: CSK (Homo sapiens, UniProt P41240)
[6] = target: MARK1 (Homo sapiens, UniProt Q9P0L2)
[7] = target: T3, EPH-B2 (Homo sapiens, UniProt P29323)
T3 sequence (P29323 19-1055): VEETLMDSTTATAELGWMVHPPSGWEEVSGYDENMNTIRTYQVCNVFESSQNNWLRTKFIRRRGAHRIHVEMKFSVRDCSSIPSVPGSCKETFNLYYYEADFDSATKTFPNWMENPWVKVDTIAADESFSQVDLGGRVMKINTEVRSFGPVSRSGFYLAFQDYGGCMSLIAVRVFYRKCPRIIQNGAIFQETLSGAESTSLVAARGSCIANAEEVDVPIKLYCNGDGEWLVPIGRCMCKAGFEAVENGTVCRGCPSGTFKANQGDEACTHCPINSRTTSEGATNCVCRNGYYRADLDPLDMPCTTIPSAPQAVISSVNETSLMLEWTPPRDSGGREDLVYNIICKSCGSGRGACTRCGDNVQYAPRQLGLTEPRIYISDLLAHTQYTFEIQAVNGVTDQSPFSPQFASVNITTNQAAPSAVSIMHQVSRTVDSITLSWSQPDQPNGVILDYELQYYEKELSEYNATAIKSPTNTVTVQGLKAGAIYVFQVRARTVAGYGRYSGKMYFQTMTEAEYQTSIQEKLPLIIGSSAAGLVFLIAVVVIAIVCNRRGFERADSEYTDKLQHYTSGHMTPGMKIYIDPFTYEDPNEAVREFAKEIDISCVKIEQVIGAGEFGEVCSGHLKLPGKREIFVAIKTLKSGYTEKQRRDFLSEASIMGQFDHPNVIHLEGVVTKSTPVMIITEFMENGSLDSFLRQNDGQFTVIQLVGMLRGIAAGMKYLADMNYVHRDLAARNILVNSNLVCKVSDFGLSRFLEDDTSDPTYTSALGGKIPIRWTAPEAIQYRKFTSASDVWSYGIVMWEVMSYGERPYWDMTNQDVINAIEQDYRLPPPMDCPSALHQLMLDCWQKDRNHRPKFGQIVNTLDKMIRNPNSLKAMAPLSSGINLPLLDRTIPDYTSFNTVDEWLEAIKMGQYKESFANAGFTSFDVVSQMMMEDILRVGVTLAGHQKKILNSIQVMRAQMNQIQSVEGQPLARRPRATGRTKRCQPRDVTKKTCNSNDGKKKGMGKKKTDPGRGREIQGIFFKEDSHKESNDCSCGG

[8] = target: CAMKKb (Homo sapiens, UniProt Q96RR4)
Sequence of CAMKKb (Q96RR4 whole entry, species assumed): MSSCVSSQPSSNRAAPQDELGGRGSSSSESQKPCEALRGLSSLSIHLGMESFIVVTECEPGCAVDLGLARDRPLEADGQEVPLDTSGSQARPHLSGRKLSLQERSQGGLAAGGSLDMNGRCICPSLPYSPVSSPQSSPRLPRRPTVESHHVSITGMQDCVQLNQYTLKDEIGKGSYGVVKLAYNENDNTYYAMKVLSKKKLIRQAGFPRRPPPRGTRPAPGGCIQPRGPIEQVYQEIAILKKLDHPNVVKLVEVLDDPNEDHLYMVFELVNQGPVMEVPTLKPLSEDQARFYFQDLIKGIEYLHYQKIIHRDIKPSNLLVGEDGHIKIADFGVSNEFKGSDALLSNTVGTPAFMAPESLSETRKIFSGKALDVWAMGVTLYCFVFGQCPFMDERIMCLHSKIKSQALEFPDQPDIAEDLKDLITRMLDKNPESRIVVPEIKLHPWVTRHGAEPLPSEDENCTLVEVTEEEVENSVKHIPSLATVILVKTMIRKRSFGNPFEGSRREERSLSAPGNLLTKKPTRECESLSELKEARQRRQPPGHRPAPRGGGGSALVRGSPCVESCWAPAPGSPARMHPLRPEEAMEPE

Sequence of CSK (P41240 whole entry, species assumed): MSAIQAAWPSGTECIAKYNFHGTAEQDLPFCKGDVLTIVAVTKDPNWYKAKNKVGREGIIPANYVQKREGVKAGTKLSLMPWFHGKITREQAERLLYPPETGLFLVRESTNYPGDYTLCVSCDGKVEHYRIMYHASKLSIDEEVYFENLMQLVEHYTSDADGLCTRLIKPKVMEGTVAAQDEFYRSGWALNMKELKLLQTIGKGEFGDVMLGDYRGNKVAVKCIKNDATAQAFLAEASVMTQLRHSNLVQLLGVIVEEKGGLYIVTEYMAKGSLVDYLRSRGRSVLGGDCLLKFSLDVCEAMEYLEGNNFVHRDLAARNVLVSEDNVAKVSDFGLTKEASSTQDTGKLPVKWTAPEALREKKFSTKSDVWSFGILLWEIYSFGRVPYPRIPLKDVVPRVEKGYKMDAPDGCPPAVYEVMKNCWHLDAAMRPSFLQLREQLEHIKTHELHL
Sequence of PKBb (P31751 whole entry): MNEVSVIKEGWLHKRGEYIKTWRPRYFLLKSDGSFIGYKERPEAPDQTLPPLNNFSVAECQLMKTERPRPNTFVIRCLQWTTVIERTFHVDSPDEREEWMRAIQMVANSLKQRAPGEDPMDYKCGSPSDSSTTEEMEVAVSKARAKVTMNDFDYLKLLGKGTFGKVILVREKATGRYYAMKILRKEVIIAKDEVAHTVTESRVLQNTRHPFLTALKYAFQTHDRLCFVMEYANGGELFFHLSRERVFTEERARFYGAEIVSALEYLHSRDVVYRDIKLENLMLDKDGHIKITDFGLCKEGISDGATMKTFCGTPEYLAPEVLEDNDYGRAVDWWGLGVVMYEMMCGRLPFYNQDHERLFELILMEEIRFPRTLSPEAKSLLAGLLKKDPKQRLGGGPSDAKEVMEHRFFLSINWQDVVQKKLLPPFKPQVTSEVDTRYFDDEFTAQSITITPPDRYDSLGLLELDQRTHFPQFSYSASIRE
Sequence of MARK1 (Q9P0L2 whole entry, species assumed): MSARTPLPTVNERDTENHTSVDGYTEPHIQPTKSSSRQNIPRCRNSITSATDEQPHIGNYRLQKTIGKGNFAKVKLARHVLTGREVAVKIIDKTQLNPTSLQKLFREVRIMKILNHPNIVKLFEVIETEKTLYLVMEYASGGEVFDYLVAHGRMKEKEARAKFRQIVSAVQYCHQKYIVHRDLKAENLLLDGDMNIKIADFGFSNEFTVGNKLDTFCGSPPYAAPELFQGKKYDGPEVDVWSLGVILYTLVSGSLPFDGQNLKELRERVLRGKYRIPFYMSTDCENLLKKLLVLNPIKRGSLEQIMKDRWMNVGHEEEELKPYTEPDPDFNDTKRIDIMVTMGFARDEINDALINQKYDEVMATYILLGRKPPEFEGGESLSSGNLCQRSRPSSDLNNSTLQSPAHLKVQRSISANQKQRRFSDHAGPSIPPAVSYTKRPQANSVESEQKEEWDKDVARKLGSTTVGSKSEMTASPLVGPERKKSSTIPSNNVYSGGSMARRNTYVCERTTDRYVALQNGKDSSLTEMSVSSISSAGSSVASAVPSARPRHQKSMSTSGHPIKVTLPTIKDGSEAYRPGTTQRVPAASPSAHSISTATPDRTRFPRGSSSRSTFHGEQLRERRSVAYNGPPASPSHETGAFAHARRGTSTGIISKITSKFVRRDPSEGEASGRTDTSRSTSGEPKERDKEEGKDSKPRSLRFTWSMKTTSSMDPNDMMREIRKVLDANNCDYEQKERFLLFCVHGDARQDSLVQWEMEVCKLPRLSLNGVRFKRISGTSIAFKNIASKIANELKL
Sequence of RSK2 (P51812 whole entry, species assumed): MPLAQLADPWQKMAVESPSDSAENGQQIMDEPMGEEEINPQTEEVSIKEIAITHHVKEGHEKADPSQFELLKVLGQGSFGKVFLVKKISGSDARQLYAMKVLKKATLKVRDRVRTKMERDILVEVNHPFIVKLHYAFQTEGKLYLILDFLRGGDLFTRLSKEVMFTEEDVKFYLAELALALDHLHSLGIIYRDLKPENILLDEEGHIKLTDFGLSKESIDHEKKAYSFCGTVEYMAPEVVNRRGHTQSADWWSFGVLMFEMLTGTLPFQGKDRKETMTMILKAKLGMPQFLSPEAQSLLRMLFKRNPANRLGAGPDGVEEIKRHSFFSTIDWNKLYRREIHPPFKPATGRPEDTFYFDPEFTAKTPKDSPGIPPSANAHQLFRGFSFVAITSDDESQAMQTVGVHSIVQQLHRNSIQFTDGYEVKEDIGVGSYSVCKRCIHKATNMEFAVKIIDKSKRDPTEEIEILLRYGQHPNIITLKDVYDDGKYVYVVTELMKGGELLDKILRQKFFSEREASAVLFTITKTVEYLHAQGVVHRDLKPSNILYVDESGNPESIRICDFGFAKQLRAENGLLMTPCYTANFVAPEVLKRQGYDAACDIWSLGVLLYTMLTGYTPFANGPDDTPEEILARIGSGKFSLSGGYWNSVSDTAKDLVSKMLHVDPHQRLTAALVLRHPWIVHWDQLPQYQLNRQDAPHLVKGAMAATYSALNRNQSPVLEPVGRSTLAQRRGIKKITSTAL

`NCCCC[C@H](NC(=O)[C@H](CC(=O)O)NC(=O)[C@H](CC(=O)O)NC(=O)[C@H](CC(=O)O)NC(=O)[C@H](CC(=O)O)NC(=O)[C@H](CC(=O)O)NC(=O)[C@@H](CC(=O)O)NC(=O)CCCCCCCn1cnc2c(Br)c(Br)c(Br)c(Br)c21)C(=O)O` [TBBI-OcA-(D-Asp)-(L-Asp)5-(L-Lys)-OH] (X1-[dD]DDDDDK-OH) gave a remaining activity at 1 µM [1] of 95%, a remaining activity at 1 µM [2] of 70% and a remaining activity at 1 µM [3] of 72%. It also gave a remaining activity at 1 µM [4] of 93%, a remaining activity at 1 µM [5] of 92% and a remaining activity at 1 µM [6] of 83%. The remaining activity at 1 µM [7] was 113% and the remaining activity at 1 µM [8] was 91%.
